Legend:
Details in all cases: reference: wild type; sites Y38
Drp1 [1] = target: Drp1 (UniProt O00429); test: co-IP, immunoblot
Drp1 [2] = target: Drp1 (UniProt O00429); test: Flag-bead Fis1 pull-down of recombinant Drp1
Drp1 [3] = target: Drp1 (UniProt O00429); test: anti-Flag IP of Fis1-Flag, Drp1 blot

Measured: binding against the reference

Fis1 (from UniProt Q9Y3D6) Y38F
weaker: Drp1 [1] | Drp1 [2] | Drp1 [3]

From article PMC8632923
